The values below come from article doi:10.1101/2022.01.06.475303 (bioRxiv, 2022).

This experiment concerns the target SARS-CoV-2 receptor binding domain (RBD), Wuhan-1 (SARS-CoV-2 Wuhan-Hu-1, UniProt P0DTC2). Kind of experiment: SPR. For orientation: SPR reads the build-up and loss of mass on a sensor chip optically.

B1: eCC12.1.7 IgG (antibody, V domains shown)
VH: EVQLVESGGGLIQPGGSLRLSCAASGLTVSSNYMTWVRQAPGKGLEWVSVIYAGGSTFYADSVKGRFTISRDNSKNTLYLQMNSLRAEDTAVYYCARDLDVYGVDVWGQGTTVTVSS
VL: DIQLTQSPSFLSASVGDRVTITCRASQGISRYLAWYQQKPGKAPKLLIYAASTLQYGVPSRFSGSGSGTEFTLTISSLQPEDFATYYCQQLNSYPPKYTFGPGTKVEIK
As for B1, the binding result was “binds”.
